Series [1] has as its system ParA (His6-ParA) (Myxococcus xanthus). As to the kind of experiment: BLI. To be noted: 1 mM ATP, BLI: 25 mM HEPES/KOH pH 7.6, 100 mM KCl (150 or 500 mM where stated), 10 mM MgSO4, 1 mM DTT, 10 mM (so in the source) BSA, 0.01% Tween 20, temperature not stated.
The next series has as its target T1, ParB-Q52A (Myxococcus xanthus DK1622, UniProt Q1CVJ4 1-296, Q52A).
T1 construct: ParB of Myxococcus xanthus DK1622, variant lacking CTPase activity; Closed clamps formed with CTP and parS DNA; also called CTP hydrolysis-deficient ParB variant; source: E. coli Rosetta(DE3)pLysS, purified (as wild-type ParB)
T1 sequence (looked up): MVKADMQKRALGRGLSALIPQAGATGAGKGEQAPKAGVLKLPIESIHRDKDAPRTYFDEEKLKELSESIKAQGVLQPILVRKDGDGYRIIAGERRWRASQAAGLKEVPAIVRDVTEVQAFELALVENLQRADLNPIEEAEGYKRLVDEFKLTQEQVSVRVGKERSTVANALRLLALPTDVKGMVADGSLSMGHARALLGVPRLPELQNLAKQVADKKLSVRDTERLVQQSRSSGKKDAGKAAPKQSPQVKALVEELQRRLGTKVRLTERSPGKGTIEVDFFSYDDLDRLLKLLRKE
As to the kind of experiment: BLI; ParB-Q52A (10 µM) loaded on closed parS DNA on the biosensor; ParA variants (5 µM) in solution with ATP (1 mM) and 500 mM KCl. To be noted: both partners purified. A general note: Biolayer interferometry detects binding as a change in optical thickness at a sensor tip.

Where a chain is given by its changes, count along the chain named. Numbers in names are those of the source.

For orientation: Kd means the free concentration of one partner at which half of the binding sites on the other are occupied at equilibrium, for simple one-to-one binding. Low readings indicate a tighter complex, high ones a looser complex. Consider “234-bp parS fragment, closed on biosensor”, for which the values for the Kd in series [1] (150 uM ParB1-20 peptide) and in series [1] (no ParB1-20 peptide) were 0.4 µM and 7.8 µM, respectively.

B1: ParA-D110R (natural protein, Myxococcus xanthus DK1622, UniProt Q1CVJ3 1-283, looked up)
chain: MHCITRGALAYGRGERGWATVGRIICISNQKGGVGKTTTAINLAASLASAERRTLLVDMDPQGNAGSGLGIKQDNITGTIYEALLNDRPIQELLHPTELRYLQVVPATPRLTGAEVELVNQDNREFRLRDALRPLAAEYDYIIIDCPPSLGLLTLNALAAADSVLIPLQCEYYALEGLSQLTHTIDLVKQGLNPDLKMEGILLTMFDSRANIAHQVVEEVRGYFKKQVFEVIVPRNVRLSECPSFGKPIILYDIKSKGCESYLALGRELMKRDTPKSPRRRVA
notes: ParA of Myxococcus xanthus DK1622 with an exchange in the helix H4/H6/H7 region; source: E. coli Rosetta(DE3)pLysS, purified (as His6-ParA)
For the molecule B1, the binding result in the series with ParB-Q52A was “binds”.

B2: ParA-D110R/E117R (natural protein, Myxococcus xanthus DK1622, UniProt Q1CVJ3 1-283, looked up)
chain: B1 chain with E117R
notes: ParA of Myxococcus xanthus DK1622 with two exchanges in the helix H4/H6/H7 region; source: E. coli Rosetta(DE3)pLysS, purified (as His6-ParA)
Take B2: the binding result with ParB-Q52A is recorded as “binds”.

B3: ParA-E117R (natural protein, Myxococcus xanthus DK1622, UniProt Q1CVJ3 1-283, looked up)
chain: B1 chain with R110D, E117R
notes: as for B1
On to B3, for which the binding result with ParB-Q52A is given as “binds”.

B4: ParA-Y81L (natural protein, Myxococcus xanthus DK1622, UniProt Q1CVJ3 1-283, looked up)
chain: B1 chain with Y81L, R110D
notes: ParA of Myxococcus xanthus DK1622 with an exchange in the helix H4/H6/H7 region; also called Y81L variant; source: E. coli Rosetta(DE3)pLysS, purified (as His6-ParA)
On to B4, for which the binding result in the series with ParB-Q52A is given as “binds”.
